Data on 2 molecules can be found in patent publication US20240190999A1 (Molecular Partners, published 2024).

Experiment [1] has as its target cynomolgus serum albumin (CSA) (cynomolgus monkey, UniProt A2V9Z4 25-608). Put plainly: SPR (ProteOn XPR36), MpA captured on bio.h4-1BB, CSA analyte, 1:1 Langmuir fit. As for the experimental part:
(§1) ProteOn setup for MpA binding to serum albumin of different species: SPR measurements were performed using a ProteOn XPR36 instrument (BioRad). The running buffer was PBS pH 7.4 containing 0.005% Tween 20® (PBST). First, bio.h4-1BB was coated on NLC chip (BioRad) to a level of 320 RU before […] MpA was immobilized for 180 s at constant flow of 30 μl/min to a level of 200 RU. The binding of the serum albumin to MpA was detected by applying HSA (human serum albumin), CSA (cynomolgus serum albumin) and MSA (mouse serum albumin) as titration with a 180 s association and 1800 s dissociation phase using a constant flow of 100 μl/min. HSA, CSA and MSA binding was measured serially and the bio.h4-1BB/MpA complex was regenerated each time with 10 mM glycine pH 2 and 124 mM H3P04. Thus, MpA had to be recoated after each regeneration step. The signals were double referenced against the running buffer (PBST) treated control lane of L1 and A6. The 1:1 Langmuir model was used for the fitting.

Another experiment has as its target mouse FAP (mFAP) (mouse, UniProt P97321 26-761, limits assumed). The experiment is described as follows: SPR (ProteOn XPR36), mFAP on GLC chip, MpA as analyte. As for the experimental part: (§2) ProteOn setup for MpA binding to FAP of different species: SPR measurements were performed using a ProteOn XPR36 instrument (BioRad). The running buffer was PBS pH 7.4 containing 0.005% Tween 200 (PBST). hFAP (human FAP), cFAP (cynomolgus FAP) and mFAP (mouse FAP) were immobilized on a GLC chip (BioRad) at pH 5.3 to a level of 2000 RU, 1700 RU and 5000 RU, respectively. The interaction of FAP and MpA was measured by applying the MpA molecule as titration (see Table 2).

The target in experiment [2] is human 4-1BB on transfected HT1080 NF-kB-luciferase reporter cells (human, UniProt Q07011 24-255). Put plainly: cell-based or functional assay.
Chain of human 4-1BB on transfected HT1080 NF-kB-luciferase reporter cells (Q07011 24-255 limits assumed): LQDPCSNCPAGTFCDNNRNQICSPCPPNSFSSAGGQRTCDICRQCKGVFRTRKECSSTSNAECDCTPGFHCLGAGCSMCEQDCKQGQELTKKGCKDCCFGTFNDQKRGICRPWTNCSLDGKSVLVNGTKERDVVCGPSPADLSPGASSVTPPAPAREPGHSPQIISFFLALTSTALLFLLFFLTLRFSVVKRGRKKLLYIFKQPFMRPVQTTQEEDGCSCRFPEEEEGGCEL
The target in experiment [3] is T1, human 4-1BB on primary human CD8 T cells (human, UniProt Q07011 24-255). The experiment is described as follows: cell-based or functional assay.
T1 sequence (Q07011 24-255 limits assumed): as above
The target in experiment [4] is T1, human 4-1BB on primary human CD8 T cells. The experiment is described as follows: cell-based or functional assay. This is another data set of the same source.
The target of experiment [5] is T2, biotinylated human 4-1BB (bio.h4-1BB) (human, UniProt Q07011 24-186, limits assumed, biotinylated (site not stated)).
T2 construct: also called CD137
T2 sequence (Q07011 24-186 limits assumed): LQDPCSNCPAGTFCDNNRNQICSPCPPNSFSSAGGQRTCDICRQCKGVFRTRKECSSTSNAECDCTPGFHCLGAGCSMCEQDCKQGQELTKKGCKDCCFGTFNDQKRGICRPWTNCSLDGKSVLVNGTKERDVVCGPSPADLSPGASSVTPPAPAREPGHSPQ
Put plainly: SPR (ProteOn XPR36), bio.h4-1BB on NLC chip, MpA analyte; mean of triplicate; apparent affinity (bivalent). The method, then: (§3) ProteOn setup for MpA binding to 4-1BB of different species: SPR measurements were performed using a ProteOn XPR36 instrument (BioRad). The running buffer was PBS pH 7.4 containing 0.005% Tween 20® (PBST). The bio.h4-1BB, bio.c4-1BB and bio.m4-1BB were immobilized on NLC chips (BioRad) to a level of 320 RU. The binding of MpA to 4-1BB was measured by injecting MpA in a serial dilution of 30, 10, 3.3, 1.1 and 0.3 nM with an association of 180 s and dissociation of 1800 s using a constant flow of 100 μl/min (see Table 3). The measurement was repeated three times and the targets were regenerated between the individual measurements using 10 mM glycine pH 2 and 124 mM H₃PO₄. The signals were double referenced against the running buffer (PBST) treated control lane of L1 and A6. h4-1BB, c-4-1BB, and m4-1BB refer to human, cynomolgus, and mouse orthologs of 4-1BB, respectively.

In the next experiment the target is T3, cynomolgus FAP (cFAP) (cynomolgus monkey).
T3 chain: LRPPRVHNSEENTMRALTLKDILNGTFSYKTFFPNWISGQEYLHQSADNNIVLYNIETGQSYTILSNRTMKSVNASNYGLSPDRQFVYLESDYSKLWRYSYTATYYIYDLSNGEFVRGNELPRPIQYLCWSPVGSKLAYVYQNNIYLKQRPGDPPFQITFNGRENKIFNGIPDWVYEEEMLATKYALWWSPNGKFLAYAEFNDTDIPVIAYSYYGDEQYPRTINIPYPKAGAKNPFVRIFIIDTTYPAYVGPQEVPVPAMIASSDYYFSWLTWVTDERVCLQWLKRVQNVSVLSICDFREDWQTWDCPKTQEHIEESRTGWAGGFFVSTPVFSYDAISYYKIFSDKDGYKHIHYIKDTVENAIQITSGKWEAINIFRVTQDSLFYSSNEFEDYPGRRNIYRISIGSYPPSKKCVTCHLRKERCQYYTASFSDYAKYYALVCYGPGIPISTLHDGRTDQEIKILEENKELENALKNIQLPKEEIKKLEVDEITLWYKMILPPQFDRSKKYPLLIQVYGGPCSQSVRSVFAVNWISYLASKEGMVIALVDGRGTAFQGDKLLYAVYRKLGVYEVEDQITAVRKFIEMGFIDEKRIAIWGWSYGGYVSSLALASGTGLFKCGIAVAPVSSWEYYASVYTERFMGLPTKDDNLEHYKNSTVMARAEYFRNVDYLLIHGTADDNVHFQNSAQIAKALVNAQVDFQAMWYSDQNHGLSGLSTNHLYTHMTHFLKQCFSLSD
The experiment is described as follows: SPR (ProteOn XPR36), cFAP on GLC chip, MpA analyte, 1:1 Langmuir fit. The method, then:
as §2

In experiment [6] the target is T4, biotinylated mouse 4-1BB (bio.m4-1BB) (mouse, UniProt P20334 24-187, limits assumed, biotinylated (site not stated)).
T4 sequence (looked up): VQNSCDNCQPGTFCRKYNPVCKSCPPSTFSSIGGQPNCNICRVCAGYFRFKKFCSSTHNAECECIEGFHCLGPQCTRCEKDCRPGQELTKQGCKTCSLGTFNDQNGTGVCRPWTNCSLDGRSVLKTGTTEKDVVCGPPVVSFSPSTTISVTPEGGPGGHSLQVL
The experiment is described as follows: SPR (ProteOn XPR36), bio.m4-1BB on NLC chip, MpA as analyte. As for the experimental part: as §3

Experiment [7] addresses mouse serum albumin (MSA) (mouse, UniProt P07724 25-608). Put plainly: SPR (ProteOn XPR36), MpA captured on bio.h4-1BB, MSA analyte, 1:1 Langmuir fit. The method, then:
as §1

In experiment [8] the target is T5, human fibroblast activation protein (hFAP) (human, UniProt Q12884 26-760, limits assumed).
T5 construct: Recombinant soluble protein; also called human FAP; rhFAP
The experiment is described as follows: SPR (ProteOn XPR36), hFAP on GLC chip, MpA analyte, 1:1 Langmuir fit; mean of duplicate. As for the experimental part:
as §2
Two independent measurements were conducted to detect the binding of MpA to hFAP. The targets were regenerated using 10 mM glycine pH 2 and 124 mM H₃PO₄. The signals were double referenced against the PBST treated control lane of L1 and A6. The 1:1 Langmuir model was used for the fitting.

For experiment [9], the target named is T2, biotinylated human 4-1BB (bio.h4-1BB). The experiment is described as follows: SPR (ProteOn XPR36), bio.h4-1BB on NLC chip, MpA analyte; mean of triplicate. The method, then: as §3
Experiment [10] concerns the target human serum albumin (HSA) (human, UniProt P02768 25-609). Put plainly: SPR (ProteOn XPR36), MpA captured on bio.h4-1BB, HSA analyte, 1:1 Langmuir fit. The method, then:
as §1

Experiment [11] addresses T2, biotinylated human 4-1BB (bio.h4-1BB). Put plainly: SPR (ProteOn XPR36), biotinylated human 4-1BB immobilised, construct as analyte.
Experiment [12] addresses T5, human fibroblast activation protein …. The experiment is described as follows: SPR (ProteOn XPR36), hFAP immobilised on GLC chip, construct as analyte. As for the experimental part: Assay set-up: Briefly, SPR measurements were performed using a ProteOn XPR36 instrument (BioRad) as described above. Biotinylated human and cynomolgus 4-1BB and human FAP were immobilized either directly or indirectly via NeutrAvidin (˜6000 RU pre-coated) on a GLC chip to reach 600 RU, 700 RU and 2000 RU, respectively. The interaction of FAP-4-1BB bispecific constructs to the coated targets was measured by injecting the bispecific constructs in a serial dilution of 50, 16.7, 5.6, 1.9 and 0.6 nM with an association of 120 s and dissociation of 1800 s using a constant flow rate of 30 μl/min. Targets were regenerated between the individual measurements using 10 mM glycine pH 2 and 124 mM H₃PO₄. The signals were double referenced against the running buffer (PBST) treated control lane.
Target sequence in this assay (Q12884 26-760 limits assumed): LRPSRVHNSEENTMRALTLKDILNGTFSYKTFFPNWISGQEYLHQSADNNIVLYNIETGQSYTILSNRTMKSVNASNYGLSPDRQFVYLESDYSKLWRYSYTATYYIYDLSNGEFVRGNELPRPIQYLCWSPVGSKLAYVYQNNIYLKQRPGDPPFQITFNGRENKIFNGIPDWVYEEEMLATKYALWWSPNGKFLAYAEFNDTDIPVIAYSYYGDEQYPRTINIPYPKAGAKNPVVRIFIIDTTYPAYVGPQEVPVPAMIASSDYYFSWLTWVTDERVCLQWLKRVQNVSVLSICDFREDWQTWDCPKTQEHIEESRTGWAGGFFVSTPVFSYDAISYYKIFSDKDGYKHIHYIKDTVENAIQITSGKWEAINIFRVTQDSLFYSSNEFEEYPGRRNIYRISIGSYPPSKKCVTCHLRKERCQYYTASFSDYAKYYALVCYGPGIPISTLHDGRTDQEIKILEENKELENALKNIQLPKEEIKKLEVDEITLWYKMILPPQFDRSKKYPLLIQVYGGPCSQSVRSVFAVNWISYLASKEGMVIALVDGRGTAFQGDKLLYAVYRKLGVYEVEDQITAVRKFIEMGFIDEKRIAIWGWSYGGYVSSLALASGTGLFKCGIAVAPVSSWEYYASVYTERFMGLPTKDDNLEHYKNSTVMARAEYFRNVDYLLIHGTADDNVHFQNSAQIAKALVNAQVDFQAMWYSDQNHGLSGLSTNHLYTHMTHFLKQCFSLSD

Chain of mouse serum albumin (MSA) (P07724 25-608 limits assumed): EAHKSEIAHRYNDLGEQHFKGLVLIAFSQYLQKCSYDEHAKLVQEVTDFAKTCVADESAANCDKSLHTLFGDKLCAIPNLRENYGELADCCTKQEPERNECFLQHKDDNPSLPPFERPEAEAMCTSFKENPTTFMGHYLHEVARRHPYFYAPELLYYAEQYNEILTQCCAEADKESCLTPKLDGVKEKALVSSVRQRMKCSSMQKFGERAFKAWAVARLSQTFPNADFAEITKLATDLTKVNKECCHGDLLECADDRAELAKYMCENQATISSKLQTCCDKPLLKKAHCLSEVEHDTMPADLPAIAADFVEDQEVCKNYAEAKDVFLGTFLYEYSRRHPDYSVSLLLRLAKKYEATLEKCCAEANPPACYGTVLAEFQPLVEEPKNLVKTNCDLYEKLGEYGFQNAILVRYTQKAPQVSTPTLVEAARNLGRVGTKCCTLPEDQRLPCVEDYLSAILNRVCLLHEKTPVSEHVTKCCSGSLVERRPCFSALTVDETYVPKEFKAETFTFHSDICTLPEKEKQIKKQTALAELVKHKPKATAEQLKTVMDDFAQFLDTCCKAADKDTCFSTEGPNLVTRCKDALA
Chain of cynomolgus serum albumin (CSA) (A2V9Z4 25-608 limits assumed): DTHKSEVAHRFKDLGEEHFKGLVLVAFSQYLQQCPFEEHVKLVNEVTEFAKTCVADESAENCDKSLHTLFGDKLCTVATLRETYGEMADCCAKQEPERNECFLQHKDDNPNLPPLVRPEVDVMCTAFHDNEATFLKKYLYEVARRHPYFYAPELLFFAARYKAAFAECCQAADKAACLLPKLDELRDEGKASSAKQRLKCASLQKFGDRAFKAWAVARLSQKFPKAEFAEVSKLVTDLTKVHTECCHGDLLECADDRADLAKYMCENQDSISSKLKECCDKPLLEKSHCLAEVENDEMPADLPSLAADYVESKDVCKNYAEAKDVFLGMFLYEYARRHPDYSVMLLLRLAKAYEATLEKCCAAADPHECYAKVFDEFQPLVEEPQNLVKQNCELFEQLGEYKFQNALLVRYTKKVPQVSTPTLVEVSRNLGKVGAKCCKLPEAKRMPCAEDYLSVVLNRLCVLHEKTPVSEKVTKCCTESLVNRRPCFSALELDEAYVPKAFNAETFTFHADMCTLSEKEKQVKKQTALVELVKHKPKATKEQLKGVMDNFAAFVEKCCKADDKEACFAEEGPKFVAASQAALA
Chain of mouse FAP (mFAP) (P97321 26-761 limits assumed): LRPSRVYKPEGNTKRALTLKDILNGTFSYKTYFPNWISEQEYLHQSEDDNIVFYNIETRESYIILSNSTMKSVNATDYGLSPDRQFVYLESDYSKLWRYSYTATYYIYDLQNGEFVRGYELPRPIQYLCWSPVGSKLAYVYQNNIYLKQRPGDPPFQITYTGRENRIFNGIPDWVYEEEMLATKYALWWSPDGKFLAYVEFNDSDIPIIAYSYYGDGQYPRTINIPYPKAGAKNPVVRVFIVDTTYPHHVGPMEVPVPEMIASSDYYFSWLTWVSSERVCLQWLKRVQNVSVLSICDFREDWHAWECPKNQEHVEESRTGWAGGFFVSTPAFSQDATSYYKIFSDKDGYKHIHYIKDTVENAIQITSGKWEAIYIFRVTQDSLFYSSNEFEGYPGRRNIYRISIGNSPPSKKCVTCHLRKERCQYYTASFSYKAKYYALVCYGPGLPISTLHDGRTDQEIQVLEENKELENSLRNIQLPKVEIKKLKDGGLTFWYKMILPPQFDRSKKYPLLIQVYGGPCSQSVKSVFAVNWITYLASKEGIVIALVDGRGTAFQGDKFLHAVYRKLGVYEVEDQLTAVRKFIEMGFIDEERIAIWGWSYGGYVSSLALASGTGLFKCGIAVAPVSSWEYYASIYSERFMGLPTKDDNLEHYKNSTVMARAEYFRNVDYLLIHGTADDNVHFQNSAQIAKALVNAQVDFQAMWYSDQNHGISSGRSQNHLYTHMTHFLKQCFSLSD

B1: Multispecific binding protein A (MpA) (designed binder)
chain: GSDLGKKLLEAARAGQDDEVRELLKAGADVNAKDYFSHTPLHLAARNGHLKIVEVLLKAGADVNAKDFAGKTPLHLAAADGHLEIVEVLLKAGADVNAQDIFGKTPADIAADAGHEDIAEVLQKAAGSPTPTPTTPTPTPTTPTPTPTGSDLGKKLLEAARAGQDDEVRELLKAGADVNAKDVLGWTPLHLAAFEGHLEIVEVLLKAGADVNAKDKKGWTPLQLAARTGHLEIVEVLLKAGADVNAKDHIGATPLHLAAWQGHPEIVEVLLKAGADVNAQDKSGKTPADLAADAGHEDIAEVLQKAAGSPTPTPTTPTPTPTTPTPTPTGSDLGQKLLKAAQEGQDDEVRELLKAGADVNAKDLRGITPLHVAAWQGHLEIVEVLLKAGADVNAKDSKGETPLHLAAFRGHLEIVEVLLKAGADVNAQDQQGETPADLAALAGHVDIAEVLQKAAGSPTPTPTTPTPTPTTPTPTPTGSDLGQKLLKAAQEGQDDEVRELLKAGADVNAKDLRGITPLHVAAWQGHLEIVEVLLKAGADVNAKDSKGETPLHLAAFRGHLEIVEVLLKAGADVNAQDQQGETPADLAALAGHVDIAEVLQKAAGSPTPTPTTPTPTPTTPTPTPTGSDLGKKLLEAARAGQDDEVRELLKAGADVNAKDYFSHTPLHLAARNGHLKIVEVLLKAGADVNAKDFAGKTPLHLAAADGHLEIVEVLLKAGADVNAQDIFGKTPADIAADAGHEDIAEVLQKAA
notes: also called HFBBH
For the molecule B1, the Kd in experiment [1] amounted to 67 nM; in experiment [5], 0.013 nM; in the experiment with cynomolgus FAP (cFAP), 0.8 nM; in experiment [7], 38 nM; in experiment [8] it was 0.4 nM; in experiment [10] it was 8 nM. Moreover, the koff in [1] worked out at 0.075 s⁻¹; with cynomolgus FAP (cFAP), 0.00013 s⁻¹; in experiment [7] it was 0.038 s⁻¹; in experiment [8], 0.00013 s⁻¹; in experiment [9], 3.2e-05 s⁻¹; in experiment [10], 0.012 s⁻¹. Besides, the kon in [1] worked out at 1.1e+06 M⁻¹ s⁻¹; with cynomolgus FAP (cFAP), 170000 M⁻¹ s⁻¹; in experiment [7] it was 1e+06 M⁻¹ s⁻¹; in [8], 470000 M⁻¹ s⁻¹; in experiment [9] it was 2.6e+06 M⁻¹ s⁻¹; in [10], 1.5e+06 M⁻¹ s⁻¹. Besides, the binding result is given as “no binding (tested: 50 nM highest concentration injected)” in the experiment with mouse FAP (mFAP) and “no binding (tested: 30 nM highest concentration injected)” in [6]. In experiment [2], the “EC50, NF-κB-luciferase reporter in h4-1BB-HT1080 cells with CHO-hFAP cells” value worked out at 0.41 nM. Moreover, in experiment [3], the “EC50, IFNγ production by primary human CD8 T cells (anti-CD3 plus plate-coated hFAP)” value was 1.17 nM. Besides, in experiment [4], the “EC50, IFNγ secretion of human CD8 T cells (plate-coated hFAP)” value lay in the range of 1 to 2 nM.

B2: bispecific construct #50 (designed binder)
chain: MRGSHHHHHHGSDLGEKLLVAALYGQDDEVRILLAAGADVNAKDQWGLTPLHKAALQGHLEIVEVLLKAGADVNAKDERGHTPLHWAARFGHLEIVEVLLKAGADVNAQDQKGYTPADLAALWGHEDIAEVLQKAAGSPTPTPTTPTPTPTTPTPTPTGSDLGKKLLEAARAGQDDEVRELLKAGADVNAKDKDGYTPLHLAAREGHLEIVEVLLKAGADVNAKDKDGYTPLHLAAREGHLEIVEVLLKAGADVNAQDKSGKTPADLAADAGHEDIAEVLQKAA
notes: also called negative control construct #50
Regarding B2, the binding result in [11] is on record as “no binding (tested: 50 nM highest concentration injected)”. The Kd in [12] was 0.22 nM.

As a reminder, the koff is a measure of how fast the partners let go of each other. Low readings indicate a long-lived complex, high ones a short-lived complex. One may read the kon as the second-order rate constant of association. Low values mean slow association, high ones fast association.
